{
  "source": "paper PMC9307002",
  "about": "“Carboxyl Methyltransferase Catalysed Formation of Mono‐ and Dimethyl Esters under Aqueous Conditions: Application in Cascade Biocatalysis” (Angewandte Chemie (International Ed. in English), 2022)",
  "experiment_in_all_cases": "methyltransferase kinetics",
  "type_in_all_cases": "biochemical, Aspergillus fumigatus",
  "details_in_all_cases": "methyl donor SAM",
  "key": {"[1]": {"substrate": "O=C(O)c1ccc(C(=O)O)cc1"}, "[2]": {"substrate": "COC(=O)c1ccc(C(=O)O)o1"}, "[3]": {"substrate": "O=C(O)c1ccc(C(=O)O)o1"}, "[4]": {"substrate": "COC(=O)c1ccc(C(=O)O)cc1"}, "[5]": {"substrate": "O=C(O)/C=C/C(=O)N[C@@H](Cc1ccc(O)cc1)C(=O)O"}},
  "data": [
    {"protein": "FtpM (Aspergillus fumigatus Af293) (protein, recombinant, C-terminal His-tag; dimer (modelled)) MTQSNGNAVSSASDPYRLNRNIAASTRLSLQHYIWKENMGYLLHPSIDVSRPDLAIADVGTGTAIWILDLLRQLPNAKFHGFDISSEQYPAPGFLPPNVSLSKLDILGEIPEEYREKFDVVHARLLVQVVNQAGSDPVPVIRNMMKLLKPGGYLQWEEPNDDASKRPIVKADPANSSENAEKLLQRLDARFRAATPASWSVALAETFKEQGLQNVVREEFSTDTYLLLLDQTNYLGLFGELISKLDGDLKEELTQLHANTVAEARKGLSWKVRRFAFLGQKP", "values": [
      {"measurement": "Km", "setting": "[1]", "result": 72, "unit": "µM"},
      {"measurement": "kcat", "setting": "[1]", "result": 0.0148, "unit": "s⁻¹"},
      {"measurement": "Km", "setting": "[2]", "result": 1400, "unit": "µM"},
      {"measurement": "kcat", "setting": "[2]", "result": "8.3e-05", "unit": "s⁻¹"},
      {"measurement": "Km", "setting": "[3]", "result": 520, "unit": "µM"},
      {"measurement": "kcat", "setting": "[3]", "result": 0.00033, "unit": "s⁻¹"},
      {"measurement": "Km", "setting": "[4]", "result": 1510, "unit": "µM"},
      {"measurement": "kcat", "setting": "[4]", "result": "8.17e-05", "unit": "s⁻¹"},
      {"measurement": "Km", "setting": "[5]", "result": 680, "unit": "µM"},
      {"measurement": "kcat", "setting": "[5]", "result": 0.00105, "unit": "s⁻¹"}
    ]}
  ]
}
